Reference: publication doi:10.1101/464495

Legend:
[1] = biological target: Maltose binding protein (MBP) (UniProt P0AEX9 27-396); assay: size-exclusion chromatography
MBP-IE86 full length = biological target: T1, MBP-IE86 full length (human cytomegalovirus, UniProt P19893 1-580); assay: size-exclusion chromatography
T1 sequence: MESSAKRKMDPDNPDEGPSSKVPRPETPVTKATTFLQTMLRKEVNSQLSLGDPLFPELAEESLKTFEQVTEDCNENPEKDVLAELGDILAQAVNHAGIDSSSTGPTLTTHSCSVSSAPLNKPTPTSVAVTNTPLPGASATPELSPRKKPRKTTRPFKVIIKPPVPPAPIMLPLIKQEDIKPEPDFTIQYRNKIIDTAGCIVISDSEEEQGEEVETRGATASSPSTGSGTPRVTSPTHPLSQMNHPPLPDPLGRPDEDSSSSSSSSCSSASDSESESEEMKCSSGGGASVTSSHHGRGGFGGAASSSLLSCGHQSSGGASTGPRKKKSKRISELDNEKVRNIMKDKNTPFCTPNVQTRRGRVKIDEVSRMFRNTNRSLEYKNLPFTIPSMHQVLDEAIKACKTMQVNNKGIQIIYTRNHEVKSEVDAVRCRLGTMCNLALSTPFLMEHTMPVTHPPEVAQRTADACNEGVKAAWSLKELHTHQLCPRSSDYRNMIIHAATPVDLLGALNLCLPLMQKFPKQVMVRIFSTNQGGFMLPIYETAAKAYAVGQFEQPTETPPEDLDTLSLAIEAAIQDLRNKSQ

B1: FDC (28bp, phosphorothioate) (dsDNA)
DNA 1: GACAGATCGTTTAGTGAACCGTACACGA
DNA 2: TCGTGTACGGTTCACTAAACGATCTGTC
modifications: four phosphorothioate bonds per strand (* in table)
binding result [1]: no binding
binding result (MBP-IE86 full length): binds
